Data set [1] relates to O=[N+]([O-])c1ccc(O[C@@H]2O[C@H](CO)[C@@H](O)[C@H](O)[C@@H]2O)cc1. Nature of the data set: purified protein. The conditions noted are these: stated pHopt and Topt (pH 6.5, 60 °C; methods for pNP sugars give 50 mM sodium phosphate pH 6.0, 50 °C, 10 min); 0.5 to 20 mM substrate.
The target in data set [2] is CaMan5_18, exo-β-1,4-mannosidase (GH5 subfamily 18) from Cutibacterium acnes strain 266 (Cutibacterium acnes strain 266). Briefly: SEC; HiLoad 16/60 Superdex 200 prep grade in 25 mM K2HPO4 pH 7.2, 150 mM NaCl, calibrated with five protein standards.

We go through 2 substances from article PMC6160142, “Structural and biochemical characterization of the Cutibacterium acnes exo-β-1,4-mannosidase that targets the N-glycan core of host glycoproteins” (PLoS ONE, 2018).

As for “CaMan5_18 (Cutibacterium acnes subsp. acnes)”, in data set [1], the Km was 10.4 mM, the turnover number (kcat) was 7.8 s⁻¹ and the kcat/Km turned out to be 750 M⁻¹ s⁻¹.

As for “CaMan5_18, exo-β-1,4-mannosidase (GH5 subfamily 18) from Cutibacterium acnes strain 266 (enzyme)”, the stoichiometry N in data set [2] amounted to 2.

A word on the Km: it is the substrate concentration at which the rate is half of its maximum. As usually defined, the kcat is the number of substrate molecules converted per active site and unit of time at saturation. For orientation: kcat/Km means the second-order rate constant that governs catalysis at low substrate concentration. Usually stoichiometry N stands for a count of units in the complex or per binding partner.
